{
  "source": "paper PMC3035177",
  "about": "(Chemistry & biology, 2005)",
  "binders": {"B1": {"name": "DnaB helicase (purified) (enzyme, B. stearothermophilus, UniProt Q9X4C9 1-454, looked up)", "chain": "MSELFSERIPPQSIEAEQAVLGAVFLDPAALVPASEILIPEDFYRAAHQKIFHAMLRVADRGEPVDLVTVTAELAASEQLEEIGGVSYLSELADAVPTAANVEYYARIVEEKSVLRRLIRTATSIAQDGYTREDEIDVLLDEADRKIMEVSQRKHSGAFKNIKDILVQTYDNIEMLHNRDGEITGIPTGFTELDRMTSGFQRSDLIIVAARPSVGKTAFALNIAQNVATKTNENVAIFSLEMSAQQLVMRMLCAEGNINAQNLRTGKLTPEDWGKLTMAMGSLSNAGIYIDDTPSIRVSDIRAKCRRLKQESGLGMIVIDYLQLIQGSGRSKENRQQEVSEISRSLKALARELEVPVIALSQLSRSVEQRQDKRPMMSDIRESGSIEQDADIVAFLYRDDYYNKDSENKNIIEIIIAKQRNGPVGTVQLAFIKEYNKFVNLERRFDEAQIPPGA"}},
  "target": "T1, DnaG primase (purified) (B. stearothermophilus, UniProt Q9X4D0 1-597)",
  "T1 sequence (looked up)": "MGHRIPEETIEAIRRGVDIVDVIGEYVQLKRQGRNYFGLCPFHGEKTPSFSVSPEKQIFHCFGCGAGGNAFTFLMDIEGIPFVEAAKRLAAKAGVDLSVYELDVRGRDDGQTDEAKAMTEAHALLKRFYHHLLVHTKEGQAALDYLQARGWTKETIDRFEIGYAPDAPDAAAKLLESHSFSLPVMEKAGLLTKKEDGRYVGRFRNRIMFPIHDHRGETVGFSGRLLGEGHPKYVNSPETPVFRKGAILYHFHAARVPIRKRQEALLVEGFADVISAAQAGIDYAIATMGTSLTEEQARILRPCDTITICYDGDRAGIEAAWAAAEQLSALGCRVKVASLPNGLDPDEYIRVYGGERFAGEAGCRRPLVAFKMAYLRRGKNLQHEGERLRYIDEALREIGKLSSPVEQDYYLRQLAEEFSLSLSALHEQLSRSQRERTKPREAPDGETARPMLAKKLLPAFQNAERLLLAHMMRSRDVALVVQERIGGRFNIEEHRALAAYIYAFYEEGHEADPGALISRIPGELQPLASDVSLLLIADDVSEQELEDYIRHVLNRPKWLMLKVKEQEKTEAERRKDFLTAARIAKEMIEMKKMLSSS",
  "assay": "SEC",
  "data": [
    {"binder": "B1", "values": [
      {"measurement": "binding result", "result": "binds"}
    ]}
  ]
}
